Source: FireProtDB (doi:10.1093/protein/12.10.841)

B1: Lysozyme C, P61626 (parent)
chain: MKALIVLGLVLLSVTVQGKVFERCELARTLKRLGMDGYRGISLANWMCLAKWESGYNTRATNYNAGDRSTDYGIFQINSRYWCNDGKTPGAVNACHLSCSALLQDNIADAVACAKRVVRDPQGIRAWVAWRNRCQNRDVRQYVQGCGV

Variants of: B1
Details: Homo sapiens; pH 2.51; Thermal; DSC; glycine 0.05 M; reversible: yes; structure 1LZ1; whole UniProt chain shown

| Variant | Tm | heat capacity change of unfolding | unfolding enthalpy (calorimetric) | unfolding enthalpy (van 't Hoff) |
| --- | --- | --- | --- | --- |
| MKALIVLGLVLLSVTVQGKVFERCELARTLKRLGMDGYRGISLANWMCLAKWESGYNTRATNYNAGDRSTDYGIFQLNSRYWCNDGKTPGAVNACHLSCSALLQDNIADAVACAKRVVRDPQGIRAWVAWRNRCQNRDVRQYVQGCGV [I77L] | 61.4 °C | 1.12 kcal/mol/K | 109 kcal/mol | 117 kcal/mol |

Same assay, conditions: Homo sapiens; pH 2.66; Thermal; DSC; glycine 0.05 M; reversible: yes; structure 1LZ1; whole UniProt chain shown

| Variant | Tm | heat capacity change of unfolding | unfolding enthalpy (calorimetric) | unfolding enthalpy (van 't Hoff) |
| --- | --- | --- | --- | --- |
| MKALIVLGLVLLSVTVQGKVFERCELARTLKRLGMDGYRGISLANWMCLAKWESGYNTRATNYNAGDRSTDYGIFQLNSRYWCNDGKTPGAVNACHLSCSALLQDNIADAVACAKRVVRDPQGIRAWVAWRNRCQNRDVRQYVQGCGV [I77L] | 64.5 °C | 1.17 kcal/mol/K | 113 kcal/mol | 122 kcal/mol |

Same assay, conditions: Homo sapiens; pH 2.7; 64.9 °C; Thermal; DSC; glycine 0.05 M; reversible: yes; structure 1LZ1; whole UniProt chain shown

| Variant | ddG of mutation (higher = less stable) |
| --- | --- |
| MKALIVLGLVLLSVTVQGKVFERCELARTLKRLGMDGYRGISLANWMCLAKWESGYNTRATNYNAGDRSTDYGIFQLNSRYWCNDGKTPGAVNACHLSCSALLQDNIADAVACAKRVVRDPQGIRAWVAWRNRCQNRDVRQYVQGCGV [I77L] | 0 kcal/mol |
| MKALIVLGLVLLSVTVQGKVFERCELARTLKRLGMDGYRGISLANWMCLAKWESGYNTRATNYNAGDRSTDYGIFQFNSRYWCNDGKTPGAVNACHLSCSALLQDNIADAVACAKRVVRDPQGIRAWVAWRNRCQNRDVRQYVQGCGV [I77F] | 0.81 kcal/mol |
| MKALIVLGLVLLSVTVQGKVFERCELARTLKRLGMDGYRGISLANWMCLAKWESGYNTRATNYNAGDRSTDYGIFQTNSRYWCNDGKTPGAVNACHLSCSALLQDNIADAVACAKRVVRDPQGIRAWVAWRNRCQNRDVRQYVQGCGV [I77T] | 2.22 kcal/mol |

Same assay, conditions: Homo sapiens; pH 2.7; Thermal; DSC; glycine 0.05 M; reversible: yes; structure 1LZ1; whole UniProt chain shown

| Variant | Tm | change of melting temperature, mutant - wild type (higher = more stable) | heat capacity change of unfolding | unfolding enthalpy (calorimetric) | unfolding enthalpy (van 't Hoff) |
| --- | --- | --- | --- | --- | --- |
| MKALIVLGLVLLSVTVQGKVFERCELARTLKRLGMDGYRGISLANWMCLAKWESGYNTRATNYNAGDRSTDYGIFQLNSRYWCNDGKTPGAVNACHLSCSALLQDNIADAVACAKRVVRDPQGIRAWVAWRNRCQNRDVRQYVQGCGV [I77L] | 64.9 °C | 0 °C | 1.27 kcal/mol/K | 114 kcal/mol | 122 kcal/mol |
| MKALIVLGLVLLSVTVQGKVFERCELARTLKRLGMDGYRGISLANWMCLAKWESGYNTRATNYNAGDRSTDYGIFQFNSRYWCNDGKTPGAVNACHLSCSALLQDNIADAVACAKRVVRDPQGIRAWVAWRNRCQNRDVRQYVQGCGV [I77F] | 64.9 °C | – | – | – | – |
| MKALIVLGLVLLSVTVQGKVFERCELARTLKRLGMDGYRGISLANWMCLAKWESGYNTRATNYNAGDRSTDYGIFQTNSRYWCNDGKTPGAVNACHLSCSALLQDNIADAVACAKRVVRDPQGIRAWVAWRNRCQNRDVRQYVQGCGV [I77T] | 64.9 °C | – | – | – | – |

Same assay, conditions: Homo sapiens; pH 2.83; Thermal; DSC; glycine 0.05 M; reversible: yes; structure 1LZ1; whole UniProt chain shown

| Variant | Tm | heat capacity change of unfolding | unfolding enthalpy (calorimetric) | unfolding enthalpy (van 't Hoff) |
| --- | --- | --- | --- | --- |
| MKALIVLGLVLLSVTVQGKVFERCELARTLKRLGMDGYRGISLANWMCLAKWESGYNTRATNYNAGDRSTDYGIFQLNSRYWCNDGKTPGAVNACHLSCSALLQDNIADAVACAKRVVRDPQGIRAWVAWRNRCQNRDVRQYVQGCGV [I77L] | 67 °C | 1.17 kcal/mol/K | 116 kcal/mol | 126 kcal/mol |

Same assay, conditions: Homo sapiens; pH 2.96; Thermal; DSC; glycine 0.05 M; reversible: yes; structure 1LZ1; whole UniProt chain shown

| Variant | Tm | heat capacity change of unfolding | unfolding enthalpy (calorimetric) | unfolding enthalpy (van 't Hoff) |
| --- | --- | --- | --- | --- |
| MKALIVLGLVLLSVTVQGKVFERCELARTLKRLGMDGYRGISLANWMCLAKWESGYNTRATNYNAGDRSTDYGIFQLNSRYWCNDGKTPGAVNACHLSCSALLQDNIADAVACAKRVVRDPQGIRAWVAWRNRCQNRDVRQYVQGCGV [I77L] | 69.8 °C | 1.31 kcal/mol/K | 119 kcal/mol | 128 kcal/mol |

Same assay, conditions: Homo sapiens; pH 3.17; Thermal; DSC; glycine 0.05 M; reversible: yes; structure 1LZ1; whole UniProt chain shown

| Variant | Tm | heat capacity change of unfolding | unfolding enthalpy (calorimetric) | unfolding enthalpy (van 't Hoff) |
| --- | --- | --- | --- | --- |
| MKALIVLGLVLLSVTVQGKVFERCELARTLKRLGMDGYRGISLANWMCLAKWESGYNTRATNYNAGDRSTDYGIFQLNSRYWCNDGKTPGAVNACHLSCSALLQDNIADAVACAKRVVRDPQGIRAWVAWRNRCQNRDVRQYVQGCGV [I77L] | 72.1 °C | 1.24 kcal/mol/K | 123 kcal/mol | 132 kcal/mol |

Same assay, conditions: Homo sapiens; pH 2.54; Thermal; DSC; glycine 0.05 M; reversible: yes; structure 1LZ1; whole UniProt chain shown

| Variant | Tm | heat capacity change of unfolding | unfolding enthalpy (calorimetric) | unfolding enthalpy (van 't Hoff) |
| --- | --- | --- | --- | --- |
| MKALIVLGLVLLSVTVQGKVFERCELARTLKRLGMDGYRGISLANWMCLAKWESGYNTRATNYNAGDRSTDYGIFQFNSRYWCNDGKTPGAVNACHLSCSALLQDNIADAVACAKRVVRDPQGIRAWVAWRNRCQNRDVRQYVQGCGV [I77F] | 59.8 °C | 1.41 kcal/mol/K | 99.9 kcal/mol | 108 kcal/mol |

Same assay, conditions: Homo sapiens; pH 2.73; Thermal; DSC; glycine 0.05 M; reversible: yes; structure 1LZ1; whole UniProt chain shown

| Variant | Tm | heat capacity change of unfolding | unfolding enthalpy (calorimetric) | unfolding enthalpy (van 't Hoff) |
| --- | --- | --- | --- | --- |
| MKALIVLGLVLLSVTVQGKVFERCELARTLKRLGMDGYRGISLANWMCLAKWESGYNTRATNYNAGDRSTDYGIFQFNSRYWCNDGKTPGAVNACHLSCSALLQDNIADAVACAKRVVRDPQGIRAWVAWRNRCQNRDVRQYVQGCGV [I77F] | 62.8 °C | 1.58 kcal/mol/K | 104 kcal/mol | 112 kcal/mol |

Same assay, conditions: Homo sapiens; pH 2.9; Thermal; DSC; glycine 0.05 M; reversible: yes; structure 1LZ1; whole UniProt chain shown

| Variant | Tm | heat capacity change of unfolding | unfolding enthalpy (calorimetric) | unfolding enthalpy (van 't Hoff) |
| --- | --- | --- | --- | --- |
| MKALIVLGLVLLSVTVQGKVFERCELARTLKRLGMDGYRGISLANWMCLAKWESGYNTRATNYNAGDRSTDYGIFQFNSRYWCNDGKTPGAVNACHLSCSALLQDNIADAVACAKRVVRDPQGIRAWVAWRNRCQNRDVRQYVQGCGV [I77F] | 65.4 °C | 1.2 kcal/mol/K | 108 kcal/mol | 116 kcal/mol |

Same assay, conditions: Homo sapiens; pH 3.05; Thermal; DSC; glycine 0.05 M; reversible: yes; structure 1LZ1; whole UniProt chain shown

| Variant | Tm | heat capacity change of unfolding | unfolding enthalpy (calorimetric) | unfolding enthalpy (van 't Hoff) |
| --- | --- | --- | --- | --- |
| MKALIVLGLVLLSVTVQGKVFERCELARTLKRLGMDGYRGISLANWMCLAKWESGYNTRATNYNAGDRSTDYGIFQFNSRYWCNDGKTPGAVNACHLSCSALLQDNIADAVACAKRVVRDPQGIRAWVAWRNRCQNRDVRQYVQGCGV [I77F] | 68 °C | 1.29 kcal/mol/K | 111 kcal/mol | 120 kcal/mol |

Same assay, conditions: Homo sapiens; pH 3.15; Thermal; DSC; glycine 0.05 M; reversible: yes; structure 1LZ1; whole UniProt chain shown

| Variant | Tm | heat capacity change of unfolding | unfolding enthalpy (calorimetric) | unfolding enthalpy (van 't Hoff) |
| --- | --- | --- | --- | --- |
| MKALIVLGLVLLSVTVQGKVFERCELARTLKRLGMDGYRGISLANWMCLAKWESGYNTRATNYNAGDRSTDYGIFQFNSRYWCNDGKTPGAVNACHLSCSALLQDNIADAVACAKRVVRDPQGIRAWVAWRNRCQNRDVRQYVQGCGV [I77F] | 69.8 °C | 1.36 kcal/mol/K | 114 kcal/mol | 123 kcal/mol |
| MKALIVLGLVLLSVTVQGKVFERCELARTLKRLGMDGYRGISLANWMCLAKWESGYNTRATNYNAGDRSTDYGIFQTNSRYWCNDGKTPGAVNACHLSCSALLQDNIADAVACAKRVVRDPQGIRAWVAWRNRCQNRDVRQYVQGCGV [I77T] | 64.9 °C | 1.2 kcal/mol/K | 111 kcal/mol | 119 kcal/mol |

Same assay, conditions: Homo sapiens; pH 2.4; Thermal; DSC; glycine 0.05 M; reversible: yes; structure 1LZ1; whole UniProt chain shown

| Variant | Tm | heat capacity change of unfolding | unfolding enthalpy (calorimetric) | unfolding enthalpy (van 't Hoff) |
| --- | --- | --- | --- | --- |
| MKALIVLGLVLLSVTVQGKVFERCELARTLKRLGMDGYRGISLANWMCLAKWESGYNTRATNYNAGDRSTDYGIFQTNSRYWCNDGKTPGAVNACHLSCSALLQDNIADAVACAKRVVRDPQGIRAWVAWRNRCQNRDVRQYVQGCGV [I77T] | 52.9 °C | 1.65 kcal/mol/K | 90.3 kcal/mol | 98.7 kcal/mol |

Same assay, conditions: Homo sapiens; pH 2.62; Thermal; DSC; glycine 0.05 M; reversible: yes; structure 1LZ1; whole UniProt chain shown

| Variant | Tm | heat capacity change of unfolding | unfolding enthalpy (calorimetric) | unfolding enthalpy (van 't Hoff) |
| --- | --- | --- | --- | --- |
| MKALIVLGLVLLSVTVQGKVFERCELARTLKRLGMDGYRGISLANWMCLAKWESGYNTRATNYNAGDRSTDYGIFQTNSRYWCNDGKTPGAVNACHLSCSALLQDNIADAVACAKRVVRDPQGIRAWVAWRNRCQNRDVRQYVQGCGV [I77T] | 56.9 °C | 1.67 kcal/mol/K | 104 kcal/mol | 105 kcal/mol |

Same assay, conditions: Homo sapiens; pH 2.8; Thermal; DSC; glycine 0.05 M; reversible: yes; structure 1LZ1; whole UniProt chain shown

| Variant | Tm | heat capacity change of unfolding | unfolding enthalpy (calorimetric) | unfolding enthalpy (van 't Hoff) |
| --- | --- | --- | --- | --- |
| MKALIVLGLVLLSVTVQGKVFERCELARTLKRLGMDGYRGISLANWMCLAKWESGYNTRATNYNAGDRSTDYGIFQTNSRYWCNDGKTPGAVNACHLSCSALLQDNIADAVACAKRVVRDPQGIRAWVAWRNRCQNRDVRQYVQGCGV [I77T] | 59.5 °C | 1.17 kcal/mol/K | 106 kcal/mol | 110 kcal/mol |

Same assay, conditions: Homo sapiens; pH 2.99; Thermal; DSC; glycine 0.05 M; reversible: yes; structure 1LZ1; whole UniProt chain shown

| Variant | Tm | heat capacity change of unfolding | unfolding enthalpy (calorimetric) | unfolding enthalpy (van 't Hoff) |
| --- | --- | --- | --- | --- |
| MKALIVLGLVLLSVTVQGKVFERCELARTLKRLGMDGYRGISLANWMCLAKWESGYNTRATNYNAGDRSTDYGIFQTNSRYWCNDGKTPGAVNACHLSCSALLQDNIADAVACAKRVVRDPQGIRAWVAWRNRCQNRDVRQYVQGCGV [I77T] | 62.9 °C | 1.39 kcal/mol/K | 107 kcal/mol | 107 kcal/mol |
